Measured values reported in patent JP2024044204A (dated 2024).
Substitutions are numbered along the chain they refer to. In names and notes the source's numbering stands.

B1: 28G_1-GN (UT28K S55G) (antibody, V domains shown)
VH: QMQLVQSGPEVKKPGTSVKVSCKASGFTFSISAVQWVRQARGQRLEWIGWIVVGGGNTNYAQKFQERVTITRDMSTSTAYMELSSLRFEDTAVYYCAAPYCGGDCSDGFDIWGQGTMVTVSS
VL: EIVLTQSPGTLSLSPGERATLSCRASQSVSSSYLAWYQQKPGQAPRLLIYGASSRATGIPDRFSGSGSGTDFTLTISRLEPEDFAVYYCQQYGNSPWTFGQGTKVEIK
B2: 4_12-SS/WT (UT28K N57S) (antibody, V domains shown)
VH: B1 VH with G55S, N57S
VL: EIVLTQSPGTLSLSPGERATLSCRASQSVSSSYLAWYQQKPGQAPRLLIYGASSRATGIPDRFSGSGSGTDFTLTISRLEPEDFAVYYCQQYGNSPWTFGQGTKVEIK
B3: 28G_6-GR (UT28K S55G, N57R) (antibody, V domains shown)
VH: B1 VH with N57R
VL: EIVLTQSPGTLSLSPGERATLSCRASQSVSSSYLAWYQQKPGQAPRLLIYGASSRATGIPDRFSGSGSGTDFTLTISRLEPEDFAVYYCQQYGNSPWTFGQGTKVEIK
B4: UT28K N57E (antibody, V domains shown)
VH: B1 VH with G55S, N57E
VL: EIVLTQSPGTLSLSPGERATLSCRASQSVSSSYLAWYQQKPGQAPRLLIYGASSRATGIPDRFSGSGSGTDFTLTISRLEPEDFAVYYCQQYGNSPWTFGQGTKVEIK
B5: 28G_3-SR (UT28K N57R) (antibody, V domains shown)
VH: B1 VH with G55S, N57R
VL: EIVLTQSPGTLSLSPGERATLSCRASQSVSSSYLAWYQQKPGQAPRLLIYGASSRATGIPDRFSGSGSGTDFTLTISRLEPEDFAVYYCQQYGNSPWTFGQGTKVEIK
B6: 28G_8-GG (UT28K S55G, N57G) (antibody, V domains shown)
VH: B1 VH with N57G
VL: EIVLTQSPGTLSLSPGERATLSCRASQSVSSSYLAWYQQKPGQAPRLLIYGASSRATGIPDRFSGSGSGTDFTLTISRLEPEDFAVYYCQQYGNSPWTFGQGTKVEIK
B7: 28G_5-SG (UT28K N57G) (antibody, V domains shown)
VH: B1 VH with G55S, N57G
VL: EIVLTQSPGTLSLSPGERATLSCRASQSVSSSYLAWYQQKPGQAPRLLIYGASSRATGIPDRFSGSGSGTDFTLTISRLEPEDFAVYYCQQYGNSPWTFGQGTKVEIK

What was measured:
[1] = biological target: T1, SARS-CoV-2 RBD, Omicron strain (B.1.1.529 (BA.1)) (SARS-CoV-2 Omicron strain B.1.1.529 …, UniProt P0DTC2 319-541); experiment: ELISA of culture supernatant on Omicron RBD (Fig. 2-1)
T1 construct: also called Omicron-derived RBD; RBD protein (Omicron type)

[2] = biological target: T1, SARS-CoV-2 RBD, Omicron strain …; experiment: ELISA on Omicron RBD (supernatant, Fig. 2-1; 300 ng/ml, Fig. 2-2)
[3] = biological target: T1, SARS-CoV-2 RBD, Omicron strain …; experiment: ELISA on Omicron RBD, 300 ng/ml antibody (Fig. 2-2)

| Binder | binding result [1] | binding result [2] | other results |
| --- | --- | --- | --- |
| B1 | no binding | – | – |
| B2 | – | no binding (tested: 300 ng/ml (Fig. 2-2)) | – |
| B3 | no binding | – | – |
| B4 | – | – | binding result [3]: no binding (tested: 300 ng/ml (Fig. 2-2)) |
| B5 | – | no binding (tested: 300 ng/ml (Fig. 2-2)) | – |
| B6 | no binding | – | – |
| B7 | – | no binding (tested: 300 ng/ml (Fig. 2-2)) | – |
